Assay results as given in publication PMC6659731.

Target: T1, BUD13-2xFLAG (UniProt Q9BRD0 1-619)
T1 sequence: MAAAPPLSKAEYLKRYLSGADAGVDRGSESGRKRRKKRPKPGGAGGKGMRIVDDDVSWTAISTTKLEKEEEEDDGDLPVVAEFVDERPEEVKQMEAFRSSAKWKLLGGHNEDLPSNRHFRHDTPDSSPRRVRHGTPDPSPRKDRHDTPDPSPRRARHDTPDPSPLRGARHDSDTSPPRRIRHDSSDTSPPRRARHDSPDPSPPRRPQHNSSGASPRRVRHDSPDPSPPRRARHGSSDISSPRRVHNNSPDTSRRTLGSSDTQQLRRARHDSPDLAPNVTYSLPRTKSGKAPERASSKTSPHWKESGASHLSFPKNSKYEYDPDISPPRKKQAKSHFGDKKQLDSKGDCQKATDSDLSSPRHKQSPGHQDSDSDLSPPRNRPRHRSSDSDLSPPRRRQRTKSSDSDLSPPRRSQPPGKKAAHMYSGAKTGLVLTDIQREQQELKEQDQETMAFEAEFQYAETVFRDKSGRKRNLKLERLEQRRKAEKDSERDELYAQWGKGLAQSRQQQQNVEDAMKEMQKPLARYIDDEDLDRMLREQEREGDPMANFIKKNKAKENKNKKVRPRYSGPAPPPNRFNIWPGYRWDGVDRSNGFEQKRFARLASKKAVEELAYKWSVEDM
Test: EMSA

UAAAGUGCUUAUAGUGCAGGUAGUGU (ssRNA) [EMSA miR-20a locus RNA oligo]
binding result: no binding
